Assay results as given in the Human Domainome abundance scans (Beltran et al. 2025).
± gives the uncertainty stated by the source.

B1: Zinc finger protein ZIC 2, residues 250 to 295; numbered along this chain, O95409 (parent)
chain: QCIKQELICKWIDPEQLSNPKKSCNKTFSTMHELVTHVSVEHVGGP
B2: Nuclear receptor subfamily 1 group D member 2, residues 103 to 171; numbered along this chain, Q14995 (parent)
chain: CKVCGDVASGFHYGVHACEGCKGFFRRSIQQNIQYKKCLKNENCSIMRMNRNRCQQCRFKKCLSVGMSR

Variants of: B1
Assay: abundance fitness (aPCA) (normalised: wild type 0, dead -1); higher = more abundant; growth selection in yeast, the domain comes from the species named
Conditions: Homo sapiens
P46H gave an abundance fitness of 0.193 ± 0.26. With P46K the abundance fitness was 0.593 ± 0.26. P46C gave an abundance fitness of 0.1 ± 0.29. With P46W the abundance fitness was -0.709 ± 0.43. P46R showed an abundance fitness of -0.231 ± 0.17. Work on P46A yielded an abundance fitness of -0.578 ± 0.24. Work on P46I yielded an abundance fitness of -0.976 ± 0.43. For P46F, the abundance fitness was -0.736 ± 0.36. In the case of P46T, the abundance fitness is reported as -0.673 ± 0.21. Variant P46L has an abundance fitness of -0.556 ± 0.28. For P46D, the abundance fitness was 0.004 ± 0.26. In the case of G44Y, the abundance fitness is reported as -0.357 ± 0.13. G45D showed an abundance fitness of 0.034 ± 0.088. For G45C, the abundance fitness was -0.017 ± 0.1. Work on G45S yielded an abundance fitness of -0.244 ± 0.089. For G45V, the abundance fitness was -0.242 ± 0.09. In the case of G45I, the abundance fitness is reported as 0.133 ± 0.12. G45Q gave an abundance fitness of -0.217 ± 0.13. For G45P, the abundance fitness was -0.195 ± 0.16. Variant G45F has an abundance fitness of -0.202 ± 0.1. With G45H the abundance fitness was -0.443 ± 0.13. G45T showed an abundance fitness of -0.093 ± 0.11. Variant G45L has an abundance fitness of -0.149 ± 0.092. With G45M the abundance fitness was -0.382 ± 0.12. G45E showed an abundance fitness of -0.032 ± 0.1. Variant G45K has an abundance fitness of -0.134 ± 0.12. G45Y showed an abundance fitness of -0.648 ± 0.13. For G45A, the abundance fitness was 0.035 ± 0.091. Work on G45R yielded an abundance fitness of -0.114 ± 0.087.

Variants of: B2
Assay: as above
Conditions: Homo sapiens
With Y13M the abundance fitness was -0.732 ± 0.16. Y13F gave an abundance fitness of 0.059 ± 0.089. For Y13L, the abundance fitness was -0.453 ± 0.078. For Y13P, the abundance fitness was -0.89 ± 0.16. Variant Y13H has an abundance fitness of -0.145 ± 0.15. Work on Y13A yielded an abundance fitness of -0.459 ± 0.09. Work on Y13K yielded an abundance fitness of -0.491 ± 0.1. With Y13W the abundance fitness was -0.152 ± 0.065. Y13C showed an abundance fitness of -0.496 ± 0.1. Y13I gave an abundance fitness of -0.73 ± 0.12. Variant Y13Q has an abundance fitness of -0.615 ± 0.13. For Y13T, the abundance fitness was -0.572 ± 0.089. Y13E gave an abundance fitness of -0.099 ± 0.093. Variant Y13S has an abundance fitness of -0.576 ± 0.071. In the case of Y13V, the abundance fitness is reported as -0.528 ± 0.087. Variant C18I has an abundance fitness of -0.355 ± 0.4. In the case of C18L, the abundance fitness is reported as -0.692 ± 0.17. C18G showed an abundance fitness of -0.813 ± 0.14. In the case of C18Q, the abundance fitness is reported as -0.874 ± 0.22. C18S gave an abundance fitness of -0.812 ± 0.28. Variant C18E has an abundance fitness of -0.847 ± 0.3. With C18M the abundance fitness was -0.537 ± 0.42. C18W gave an abundance fitness of -0.752 ± 0.29. In the case of C18R, the abundance fitness is reported as -0.751 ± 0.14. C18A gave an abundance fitness of -0.515 ± 0.18. For C18K, the abundance fitness was -0.829 ± 0.32. For C18V, the abundance fitness was -0.79 ± 0.31. In the case of A17R, the abundance fitness is reported as -0.887 ± 0.16. A17W showed an abundance fitness of -0.702 ± 0.18. Variant A17M has an abundance fitness of -0.89 ± 0.21. In the case of A17C, the abundance fitness is reported as 0.092 ± 0.041. With A17S the abundance fitness was -0.346 ± 0.1. For A17N, the abundance fitness was -0.422 ± 0.43. A17T showed an abundance fitness of -0.392 ± 0.14. With A17L the abundance fitness was -0.666 ± 0.14. A17V gave an abundance fitness of -0.222 ± 0.058. For A17P, the abundance fitness was -0.962 ± 0.3. A17E showed an abundance fitness of -0.805 ± 0.15. For A17Q, the abundance fitness was -0.902 ± 0.32. In the case of G5K, the abundance fitness is reported as -0.5 ± 0.11. For G5Y, the abundance fitness was -1.11 ± 0.31. Variant G5H has an abundance fitness of -0.623 ± 0.18. G5M showed an abundance fitness of -0.226 ± 0.11. Work on G5S yielded an abundance fitness of -0.689 ± 0.097. G5F gave an abundance fitness of -0.918 ± 0.2. In the case of G5W, the abundance fitness is reported as -0.684 ± 0.089. G5T showed an abundance fitness of -0.802 ± 0.13. Variant G5I has an abundance fitness of -0.83 ± 0.25. Variant G5D has an abundance fitness of -0.645 ± 0.18. For G5C, the abundance fitness was -0.769 ± 0.18. Work on G5E yielded an abundance fitness of -0.605 ± 0.13. G5L showed an abundance fitness of -0.787 ± 0.1. For G5V, the abundance fitness was -0.815 ± 0.11. Work on G5Q yielded an abundance fitness of -0.476 ± 0.1. G5R showed an abundance fitness of -0.824 ± 0.083. G5P showed an abundance fitness of -0.598 ± 0.11. Variant G5A has an abundance fitness of -0.621 ± 0.1. With A8P the abundance fitness was -0.893 ± 0.17. A8G gave an abundance fitness of -0.597 ± 0.08. With A8V the abundance fitness was -0.798 ± 0.15. A8T showed an abundance fitness of -0.363 ± 0.15. For A8M, the abundance fitness was -0.584 ± 0.14. For A8S, the abundance fitness was -0.265 ± 0.073. Work on A8K yielded an abundance fitness of -0.42 ± 0.13. With A8C the abundance fitness was -0.494 ± 0.16. A8Y gave an abundance fitness of -0.782 ± 0.3. A8D gave an abundance fitness of -0.724 ± 0.42. A8R showed an abundance fitness of -0.897 ± 0.1. In the case of A8F, the abundance fitness is reported as -0.855 ± 0.43. With A8Q the abundance fitness was -0.842 ± 0.23. With A8L the abundance fitness was -0.998 ± 0.17. A8N showed an abundance fitness of -0.476 ± 0.29. S28W showed an abundance fitness of -0.733 ± 0.39. Variant S28C has an abundance fitness of 0.179 ± 0.14. In the case of S28T, the abundance fitness is reported as 0.24 ± 0.37. Work on S28V yielded an abundance fitness of -0.419 ± 0.21. With S28M the abundance fitness was -0.291 ± 0.42. Variant S28K has an abundance fitness of -0.801 ± 0.49. S28G showed an abundance fitness of -0.748 ± 0.26. G23R showed an abundance fitness of -0.087 ± 0.5. For G23D, the abundance fitness was 0.195 ± 0.34. Work on G23V yielded an abundance fitness of -0.041 ± 0.47. In the case of Q31A, the abundance fitness is reported as -0.51 ± 0.099. Work on Q31C yielded an abundance fitness of -0.551 ± 0.15. Work on V3G yielded an abundance fitness of -0.738 ± 0.22. In the case of V3E, the abundance fitness is reported as -0.754 ± 0.28. Variant V3R has an abundance fitness of -1.25 ± 0.45. In the case of V3A, the abundance fitness is reported as -0.74 ± 0.33. Work on V3D yielded an abundance fitness of -0.763 ± 0.45. For V3N, the abundance fitness was -0.78 ± 0.38. V3I gave an abundance fitness of -0.293 ± 0.27. With V3S the abundance fitness was -0.161 ± 0.46. In the case of R26M, the abundance fitness is reported as 0.319 ± 0.42. R26H gave an abundance fitness of -0.359 ± 0.41. For R26I, the abundance fitness was 0.342 ± 0.22. Variant R26Y has an abundance fitness of -0.246 ± 0.24. Work on R26F yielded an abundance fitness of -0.326 ± 0.43. With R26E the abundance fitness was -0.032 ± 0.15. Work on R26Q yielded an abundance fitness of 0.214 ± 0.15. R26W gave an abundance fitness of 0.408 ± 0.069. In the case of R26K, the abundance fitness is reported as -0.349 ± 0.34. Work on R26L yielded an abundance fitness of -0.226 ± 0.14. Work on R26V yielded an abundance fitness of -0.383 ± 0.16. Work on R26T yielded an abundance fitness of 0.092 ± 0.17. With R26N the abundance fitness was 0.135 ± 0.18. For R26G, the abundance fitness was -0.092 ± 0.091. Variant R26A has an abundance fitness of 0.133 ± 0.058. In the case of H16G, the abundance fitness is reported as -0.412 ± 0.073. With H16V the abundance fitness was -0.008 ± 0.059. H16D showed an abundance fitness of 0.264 ± 0.098. With H16T the abundance fitness was -0.1 ± 0.12. H16M showed an abundance fitness of 0.123 ± 0.079. For H16Y, the abundance fitness was -0.096 ± 0.075. H16C gave an abundance fitness of -0.411 ± 0.12. With H16L the abundance fitness was 0.098 ± 0.056. H16I showed an abundance fitness of -0.306 ± 0.15. H16P gave an abundance fitness of -0.085 ± 0.091. Work on H16N yielded an abundance fitness of -0.297 ± 0.19. In the case of H16F, the abundance fitness is reported as -0.062 ± 0.16. For H16R, the abundance fitness was -0.162 ± 0.067. Work on H16A yielded an abundance fitness of -0.169 ± 0.055. For H16K, the abundance fitness was -0.501 ± 0.15. In the case of H16E, the abundance fitness is reported as 0.219 ± 0.082. In the case of F24N, the abundance fitness is reported as -0.908 ± 0.37. With F24A the abundance fitness was -1.09 ± 0.34. With F24G the abundance fitness was -0.798 ± 0.17. Variant F24R has an abundance fitness of -0.924 ± 0.19. F24Q gave an abundance fitness of -0.664 ± 0.41. Variant F24I has an abundance fitness of -1.02 ± 0.42. With F24S the abundance fitness was -0.661 ± 0.3. Variant F24W has an abundance fitness of -0.723 ± 0.23. Variant F24V has an abundance fitness of -0.81 ± 0.15. F24K showed an abundance fitness of -1.04 ± 0.46. With F24E the abundance fitness was -0.68 ± 0.23. For F24L, the abundance fitness was -0.272 ± 0.16. F24T gave an abundance fitness of -0.422 ± 0.21. F24P gave an abundance fitness of -0.52 ± 0.47. For C4S, the abundance fitness was -0.819 ± 0.21.
